How the values were obtained:
[1] = molecular target: HIF2a bHLH-PASA-PASB;ARNT bHLH-PASA-PASB (;) (UniProt Q99814+P27540); experiment: EMSA; details: EMSA: 10 nM probe, 20 mM Tris pH 8.0, 250 mM NaCl, 16 ug/ml salmon sperm ssDNA, 30 ug/ml BSA, 1.25 mM MgCl2, 6% glycerol, 10 mM DTT, room temperature 30 min …
[2] = molecular target: HIF1a bHLH-PASA-PASB;ARNT bHLH-PASA-PASB (;) (UniProt Q16665+P27540); experiment: EMSA; details: EMSA: 10 nM probe, 20 mM Tris pH 8.0, 250 mM NaCl, 16 ug/ml salmon sperm ssDNA, 30 ug/ml BSA, 1.25 mM MgCl2, 6% glycerol, 10 mM DTT, room temperature 30 min …

Substance: TACGTG-containing EMSA probe
- binding signal (reference (HIF1a/ARNT ~2 fold higher)) [1]: 1
- binding signal (fold affinity vs HIF2a/ARNT) [2]: 2

From publication PMC12774657
